Measurements: US20120121688A1, “PREVENTATIVE OR THERAPEUTIC AGENT AND METHOD FOR IMMUNE DISEASE” (Rinken, priority 2006, published 2012)

Tests used:
[1] = system: B220+ cells (B cells); assay: Cytokine production by whole spleen cells co-cultured with B220+ cells (B cells) from spleen of administered mice (ELISA); type: cell-based, BDF1 mice; settings: B220+ cells from mice given 2 μg α-GalCer/mouse i.p., added to whole spleen cells; FIG. 1
Method: Aqueous α-GalCer or αGC liposome (International Publication WO2005/120574) at 2 μg α-GalCer/mouse was intraperitoneally administered to BDF1 mice, and after 24 hours, spleen was removed. The spleen was homogenized with a slide glass to prepare a cell suspension. Subsequently, anti-CD11c antibody magnetic beads (Miltenyi) were added thereto and CD11c^+ cells (DC) were prepared using a magnet. B220^+ cells (B cells) were prepared using anti-B220 mAb magnetic beads (Miltenyi) from the remaining cells which had not been bound to the magnet. Then, 2.5×10^5 whole spleen cells from the normal BDF1 mouse and 1×10^5 DC or 3×10^5 B cells derived from the spleen in the BDF1 mouse administered with aqueous α-GalCer or αGC liposome, suspended in 200 μL of culture medium were added in one well in a 96-well U bottom culture plate, and cultured in an incubator containing 5% CO2 at 37° C. Levels of cytokines, IFN-γ, IL-4 and IL-10 in culture supernatants after 24, 48 and 72 hours were measured by ELISA (FIG. 1).

[2] = system: natural type Cryj1-specific IgE antibody; assay: Inhibitory capacity of recCryj1/2 protein for in vivo IgE antibody production; set-up: species or system BDF1 mice; settings: FIG. 10
Method: BDF1 mice (female, 8 weeks of age, Charles River) were intraperitoneally immunized with 5 μg of purified Cryj1 (natural type Cryj1, Hayashibara Biochemical Laboratories Inc.) derived from the cedar pollen mixed with 2 mg of aluminium hydroxide gel adjuvant (RIKEN) at the start of the experiment (0day) and on the 14th day. On the 50th day, the boost immunization with 1 μg of natural type Cryj1 was given. Meanwhile, the blood samples were collected from the orbital venous plexus on the 14th, 29th and 57th days, and the levels of the natural type Cryj1-specific IgE antibody in serum were measured. Subsequently, on the 99th day, the levels of the natural type Cryj1-specific IgE antibody were measured in all mice, and the mice were divided into three group (5 mice in one group) so that average values of antibody titers were equal among the groups. On the 106th, 113th and 120th days, the recCryj1/2 protein (0.2 μg), the recCryj1/2 protein (2 μg), or saline was administered three times, and further the boost immunization with 1 μg of natural type Cryj1 was given on the 133rd day. The blood samples were collected from the orbital venous plexus on the 140th and 160th days, and the levels of the natural type Cryj1-specific IgE antibody in serum were measured.

[3] = system: natural type Cryj1-specific and recCryj1/2-specific antibody titers; assay: In vivo antibody production by immunization with recCryj1/2 protein or natural type Cryj1; set-up: species or system BALB/c×DBA/2F1 (BDF1) mice
Method: BALB/c×DBA/2F1 (BDF1) mice (female, 8 weeks of age, five mice in one group, Charles River) were intraperitoneally immunized with 10 μg of purified Cryj1 (natural type Cryj1, Hayashibara Biochemical Laboratories Inc.) derived from the cedar pollen, or 5 μg or 10 μg of the recCryj1/2 protein mixed with 2 mg of aluminium hydroxide gel adjuvant (RIKEN) at the start of the experiment (0day) and on the 14th day. The boost immunization with 1 μg of natural type Cryj1 or 5 μg or 10 μg of the recCryj1/2 protein was given to each mouse on the 41st day. Furthermore, on the 81st day, the boost immunization with 1 μg of natural type Cryj1 mixed with 2 mg of aluminium hydroxide gel was given to all mice. Blood samples were collected from orbital venous plexus on the 13th, 28th, 55th, 76th and 95th days, and levels of natural type Cryj1-specific antibody titers and recCryj1/2-specific IgE antibody titers were measured. […] The recCryj1/2-specific IgE antibody titers on the 76th day were increased in mice immunized with the recCryj1/2 fusion protein (FIG. 8). Meanwhile, on the 28th and 55th day, natural type Cryj1-specific IgG1 and IgG2a antibody titers were increased in both mice immunized with natural type Cryj1 and recCryj1/2 (FIG. 9).

## CCCCCCCCCCCCCCCCCCCCCCCCCC(=O)N[C@@H](CO[C@H]1O[C@H](CO)[C@H](O)[C@H](O)[C@H]1O)[C@H](O)[C@H](O)CCCCCCCCCCCCCC [aqueous α-GalCer, α-galactosylceramide]
[1]
  IFN-γ production: not detected
  IL-4 production: not detected
  IL-10 production: not detected

B1: recCryj1/2 protein: His-tagged recombinant fusion protein of Cryj1 mature protein and Cryj2 mature protein, SEQ ID NO:9 (protein)
chain: MAHHHHHHSAALEVLFQGPSDNPIDSCWRGDSNWAQNRMKLADCAVGFGSSTMGGKGGDLYTVTNSDDDPVNPAPGTLRYGATRDRPLWIIFSGNMNIKLKMPMYIAGYKTFDGRGAQVYIGNGGPCVFIKRVSNVIIHGLHLYGCSTSVLGNVLINESFGVEPVHPQDGDALTLRTATNIWIDHNSFSNSSDGLVDVTLSSTGVTISNNLFFNHHKVMLLGHDDAYSDDKSMKVTVAFNQFGPNCGQRMPRARYGLVHVANNNYDPWTIYAIGGSSNPTILSEGNSFTAPNESYKKQVTIRIGCKTSSSCSNWVWQSTQDVFYNGAYFVSSGKYEGGNIYTKKEAFNVENGNATPQLTKNAGVLTCSLSKRCRKVEHSRHDAINIFNVEKYGAVGDGKHDCTEAFSTAWQAACKKPSAMLLVPGNKKFVVNNLFFNGPCQPHFTFKVDGIIAAYQNPASWKNNRIWLQFAKLTGFTLMGKGVIDGQGKQWWAGQCKWVNGREICNDRDRPTAIKFDFSTGLIIQGLKLMNSPEFHLVFGNCEGVKIIGISITAPRDSPNTDGIDIFASKNFHLQKNTIGTGDDCVAIGTGSSNIVIEDLICGPGHGISIGSLGRENSRAEVSYVHVNGAKFIDTQNGLRIKTWQGGSGMASHIIYENVEMINSENPILINQFYCTSASACQNQRSAVQIQDVTYKNIRGTSATAAAIQLKCSDSMPCKDIKLSDISLKLTSGKIASCLNDNANGYFSGHVIPACKNLSPS
modifications: His tag
[2]; 127th day, 0.2 or 2 μg administered on days 106, 113, 120 to Cryj1-sensitized mice
  natural type Cryj1-specific IgE antibody titers versus saline group: higher
[2]; 160th day, increased in saline group
  natural type Cryj1-specific IgE antibody titers after the boost immunization (133rd day): decreased
[3]; 28th and 55th day, FIG. 9
  natural type Cryj1-specific IgG1 antibody titers: increased
  natural type Cryj1-specific IgG2a antibody titers: increased
[3]; 76th day, FIG. 8
  recCryj1/2-specific IgE antibody titers: increased
[3]; 94th day, mice earlier immunized with 5 or 10 μg, FIG. 7
  increase of the natural type Cryj1-specific IgE antibody after immunization with adjuvant and natural type Cryj1 on the 81st day: scarcely observed
[3]; days 28, 55 and 76, i.p. immunization with aluminium hydroxide gel days 0 and 14, boost day 41, FIG. 7
  natural type Cryj1-specific IgE antibody titers: not increased at all
